# Numbered stars: 1 amine (or outer) side, 2 acyl side, 3 side chain; on linkers, the order of the positions; unused ones are H or OH. Bridge positions count the residues as written; N and C are the ends. Square brackets hold non-standard residues; d marks the D form. Side chains are listed from the residue outwards. Ends that are not written are not given here. * marks the point of attachment. C20 diacid = O=C(O)CCCCCCCCCCCCCCCCCCC(=O)*; γGlu = O=C(O)[C@H](CCC(=O)[*:2])N[*:1]
# T1: human amylin receptor (amylin 3(a) receptor: human calcitonin receptor with RAMP-3) (human, UniProt P30988 25-474; O60896 24-148, limits assumed)
# T1 sequence (looked up) 1: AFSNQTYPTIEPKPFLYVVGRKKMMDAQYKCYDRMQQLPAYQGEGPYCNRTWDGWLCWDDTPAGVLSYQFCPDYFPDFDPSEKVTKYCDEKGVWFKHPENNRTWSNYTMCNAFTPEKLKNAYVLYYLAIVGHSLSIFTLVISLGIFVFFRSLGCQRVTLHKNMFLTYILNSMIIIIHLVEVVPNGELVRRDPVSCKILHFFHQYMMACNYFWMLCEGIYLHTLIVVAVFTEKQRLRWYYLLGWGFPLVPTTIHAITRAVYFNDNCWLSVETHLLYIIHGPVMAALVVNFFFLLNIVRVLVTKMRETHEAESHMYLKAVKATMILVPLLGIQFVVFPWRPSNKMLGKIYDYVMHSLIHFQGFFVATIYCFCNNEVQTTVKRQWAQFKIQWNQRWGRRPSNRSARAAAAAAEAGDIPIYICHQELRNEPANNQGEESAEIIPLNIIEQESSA
# T1 sequence (looked up) 2: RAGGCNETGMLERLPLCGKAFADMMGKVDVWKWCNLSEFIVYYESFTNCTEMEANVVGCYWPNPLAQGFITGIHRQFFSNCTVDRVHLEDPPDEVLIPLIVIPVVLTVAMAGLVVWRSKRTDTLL
# T2: human calcitonin receptor (human, UniProt P30988 25-474)
# T2 sequence (looked up): T1 sequence (looked up) 1
# T3: human calcitonin receptor (human, UniProt P30988 25-474)
# T3 construct: whole, on cells; also called hCTR; hCT
# T3 sequence (looked up): T1 sequence (looked up) 1
# B1: N^ε1-[(4S)-4-carboxy-4-(19-carboxynonadecanoylamino)butanoyl]-[Glu14,Arg17,Pro21,Pro27,Pro34,Arg35]-h-amylin (peptide)
# peptide: K([γGlu-C20 diacid])CNTATCATQRLAEFLRHSSPNFGAIPSSTNVGPRTY-NH2
# modifications: disulfide 2-7; N-terminus assumed
# SMILES: CC[C@H](C)[C@H](NC(=O)[C@H](C)NC(=O)CNC(=O)[C@H](Cc1ccccc1)NC(=O)[C@H](CC(N)=O)NC(=O)[C@@H]1CCCN1C(=O)[C@H](CO)NC(=O)[C@H](CO)NC(=O)[C@H](Cc1c[nH]cn1)NC(=O)[C@H](CCCNC(=N)N)NC(=O)[C@H](CC(C)C)NC(=O)[C@H](Cc1ccccc1)NC(=O)[C@H](CCC(=O)O)NC(=O)[C@H](C)NC(=O)[C@H](CC(C)C)NC(=O)[C@H](CCCNC(=N)N)NC(=O)[C@H](CCC(N)=O)NC(=O)[C@@H](NC(=O)[C@H](C)NC(=O)[C@@H]1CSSC[C@H](NC(=O)[C@@H](N)CCCCNC(=O)CC[C@H](NC(=O)CCCCCCCCCCCCCCCCCCC(=O)O)C(=O)O)C(=O)N[C@@H](CC(N)=O)C(=O)N[C@@H]([C@@H](C)O)C(=O)N[C@@H](C)C(=O)N[C@@H]([C@@H](C)O)C(=O)N1)[C@@H](C)O)C(=O)N1CCC[C@H]1C(=O)N[C@@H](CO)C(=O)N[C@@H](CO)C(=O)N[C@H](C(=O)N[C@@H](CC(N)=O)C(=O)N[C@H](C(=O)NCC(=O)N1CCC[C@H]1C(=O)N[C@@H](CCCNC(=N)N)C(=O)N[C@H](C(=O)N[C@@H](Cc1ccc(O)cc1)C(N)=O)[C@@H](C)O)C(C)C)[C@@H](C)O
# B2: N^ε1-[(4S)-4-carboxy-4-(19-carboxynonadecanoylamino)butanoyl]-[Asp14,Arg17,Pro21,Pro27,Pro34,Glu35]-h-amylin (peptide)
# peptide: K([γGlu-C20 diacid])CNTATCATQRLADFLRHSSPNFGAIPSSTNVGPETY-NH2
# modifications: disulfide 2-7; N-terminus assumed
# SMILES: CC[C@H](C)[C@H](NC(=O)[C@H](C)NC(=O)CNC(=O)[C@H](Cc1ccccc1)NC(=O)[C@H](CC(N)=O)NC(=O)[C@@H]1CCCN1C(=O)[C@H](CO)NC(=O)[C@H](CO)NC(=O)[C@H](Cc1c[nH]cn1)NC(=O)[C@H](CCCNC(=N)N)NC(=O)[C@H](CC(C)C)NC(=O)[C@H](Cc1ccccc1)NC(=O)[C@H](CC(=O)O)NC(=O)[C@H](C)NC(=O)[C@H](CC(C)C)NC(=O)[C@H](CCCNC(=N)N)NC(=O)[C@H](CCC(N)=O)NC(=O)[C@@H](NC(=O)[C@H](C)NC(=O)[C@@H]1CSSC[C@H](NC(=O)[C@@H](N)CCCCNC(=O)CC[C@H](NC(=O)CCCCCCCCCCCCCCCCCCC(=O)O)C(=O)O)C(=O)N[C@@H](CC(N)=O)C(=O)N[C@@H]([C@@H](C)O)C(=O)N[C@@H](C)C(=O)N[C@@H]([C@@H](C)O)C(=O)N1)[C@@H](C)O)C(=O)N1CCC[C@H]1C(=O)N[C@@H](CO)C(=O)N[C@@H](CO)C(=O)N[C@H](C(=O)N[C@@H](CC(N)=O)C(=O)N[C@H](C(=O)NCC(=O)N1CCC[C@H]1C(=O)N[C@@H](CCC(=O)O)C(=O)N[C@H](C(=O)N[C@@H](Cc1ccc(O)cc1)C(N)=O)[C@@H](C)O)C(C)C)[C@@H](C)O
# B3: N^ε1-[(4S)-4-carboxy-4-[[(4S)-4-carboxy-4-(19-carboxynonadecanoylamino)butanoyl]amino]butanoyl]-[D-Asp14,Arg17,Pro21,Pro27,Arg35]-h-amylin (peptide)
# peptide: K([γGlu-γGlu-C20 diacid])CNTATCATQRLA[dD]FLRHSSPNFGAIPSSTNVGSRTY-NH2
# modifications: disulfide 2-7; N-terminus assumed
# SMILES: CC[C@H](C)[C@H](NC(=O)[C@H](C)NC(=O)CNC(=O)[C@H](Cc1ccccc1)NC(=O)[C@H](CC(N)=O)NC(=O)[C@@H]1CCCN1C(=O)[C@H](CO)NC(=O)[C@H](CO)NC(=O)[C@H](Cc1c[nH]cn1)NC(=O)[C@H](CCCNC(=N)N)NC(=O)[C@H](CC(C)C)NC(=O)[C@H](Cc1ccccc1)NC(=O)[C@@H](CC(=O)O)NC(=O)[C@H](C)NC(=O)[C@H](CC(C)C)NC(=O)[C@H](CCCNC(=N)N)NC(=O)[C@H](CCC(N)=O)NC(=O)[C@@H](NC(=O)[C@H](C)NC(=O)[C@@H]1CSSC[C@H](NC(=O)[C@@H](N)CCCCNC(=O)CC[C@H](NC(=O)CC[C@H](NC(=O)CCCCCCCCCCCCCCCCCCC(=O)O)C(=O)O)C(=O)O)C(=O)N[C@@H](CC(N)=O)C(=O)N[C@@H]([C@@H](C)O)C(=O)N[C@@H](C)C(=O)N[C@@H]([C@@H](C)O)C(=O)N1)[C@@H](C)O)C(=O)N1CCC[C@H]1C(=O)N[C@@H](CO)C(=O)N[C@@H](CO)C(=O)N[C@H](C(=O)N[C@@H](CC(N)=O)C(=O)N[C@H](C(=O)NCC(=O)N[C@@H](CO)C(=O)N[C@@H](CCCNC(=N)N)C(=O)N[C@H](C(=O)N[C@@H](Cc1ccc(O)cc1)C(N)=O)[C@@H](C)O)C(C)C)[C@@H](C)O
# B4: N^ε1-[(4S)-4-carboxy-4-(19-carboxynonadecanoylamino)butanoyl]-[Asp14,Arg17,Pro21,Pro27,Pro34,Arg35]-h-amylin (peptide)
# peptide: K([γGlu-C20 diacid])CNTATCATQRLADFLRHSSPNFGAIPSSTNVGPRTY-NH2
# modifications: disulfide 2-7; N-terminus assumed
# SMILES: CC[C@H](C)[C@H](NC(=O)[C@H](C)NC(=O)CNC(=O)[C@H](Cc1ccccc1)NC(=O)[C@H](CC(N)=O)NC(=O)[C@@H]1CCCN1C(=O)[C@H](CO)NC(=O)[C@H](CO)NC(=O)[C@H](Cc1c[nH]cn1)NC(=O)[C@H](CCCNC(=N)N)NC(=O)[C@H](CC(C)C)NC(=O)[C@H](Cc1ccccc1)NC(=O)[C@H](CC(=O)O)NC(=O)[C@H](C)NC(=O)[C@H](CC(C)C)NC(=O)[C@H](CCCNC(=N)N)NC(=O)[C@H](CCC(N)=O)NC(=O)[C@@H](NC(=O)[C@H](C)NC(=O)[C@@H]1CSSC[C@H](NC(=O)[C@@H](N)CCCCNC(=O)CC[C@H](NC(=O)CCCCCCCCCCCCCCCCCCC(=O)O)C(=O)O)C(=O)N[C@@H](CC(N)=O)C(=O)N[C@@H]([C@@H](C)O)C(=O)N[C@@H](C)C(=O)N[C@@H]([C@@H](C)O)C(=O)N1)[C@@H](C)O)C(=O)N1CCC[C@H]1C(=O)N[C@@H](CO)C(=O)N[C@@H](CO)C(=O)N[C@H](C(=O)N[C@@H](CC(N)=O)C(=O)N[C@H](C(=O)NCC(=O)N1CCC[C@H]1C(=O)N[C@@H](CCCNC(=N)N)C(=O)N[C@H](C(=O)N[C@@H](Cc1ccc(O)cc1)C(N)=O)[C@@H](C)O)C(C)C)[C@@H](C)O
# Biological target: T1, human amylin receptor (amylin 3(a) …)
# Experiment: cell-based or functional assay
Ratio hCT/hAmylin funct.,hAmylin-R funct. EC50 (pM),Binder
3.9,288,K([γGlu-C20 diacid])CNTATCATQRLADFLRHSSPNFGAIPSSTNVGPETY-NH2 (disulfide 2-7 (inferred))
9.9,216,K([γGlu-γGlu-C20 diacid])CNTATCATQRLAEFLRHSSPNFGAIPSSTNVGPNTF-NH2 (disulfide 2-7 (inferred))
5.8,222,K([γGlu-γGlu-C20 diacid])CNTATCATQRLAEFLRHSSPNFGAILSSTPVGPETY-NH2 (disulfide 2-7 (inferred))
8.1,109,"K([γGlu-γGlu-C20 diacid])CNTATCATQRLASFLRHSSPNFGAIPSSTNVGPETY-NH2 (disulfide 2-7 (inferred), also called compound 120)"
–,5170,K([γGlu-γGlu-C20 diacid])CNTATCATQRLAEFLRHSSNNPGAILSSTNVGPETY-NH2 (disulfide 2-7 (inferred))

# Biological target: T2, human calcitonin receptor
# Experiment: cell-based or functional assay
row,hCTR funct. EC50 (pM),Binder
1,1120,K([γGlu-C20 diacid])CNTATCATQRLADFLRHSSPNFGAIPSSTNVGPETY-NH2 (disulfide 2-7 (inferred))
2,2140,K([γGlu-γGlu-C20 diacid])CNTATCATQRLAEFLRHSSPNFGAIPSSTNVGPNTF-NH2 (disulfide 2-7 (inferred))
3,1280,K([γGlu-γGlu-C20 diacid])CNTATCATQRLAEFLRHSSPNFGAILSSTPVGPETY-NH2 (disulfide 2-7 (inferred))
4,887,"K([γGlu-γGlu-C20 diacid])CNTATCATQRLASFLRHSSPNFGAIPSSTNVGPETY-NH2 (disulfide 2-7 (inferred), also called compound 120)"
5,89600,K([γGlu-γGlu-C20 diacid])CNTATCATQRLAEFLRHSSNNPGAILSSTNVGPETY-NH2 (disulfide 2-7 (inferred))

# Biological target: T3, human calcitonin receptor
# Experiment: SPA competition against 125I-calcitonin, membranes of BHK cells with human calcitonin receptor (Assay VII)
# In short: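 BHK hCTR membranes 35 ng/μL + SPA beads 0.05 mg/well; buffer 50 mM Hepes pH 7.4, 1 mM CaCl2, 5 mM MgCl₂, 0.1% OA, 0.02% Tween20. 120 min, 25° C., shaking. Scintillation count; IC50 by one-site binding competition.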
row,IC50 [nM],Binder
1,6.3,B1
2,3.27,B2
3,112,B3
4,42.5,B4

# Biological target: T3, human calcitonin receptor
# Experiment: ratio of IC50 at human calcitonin receptor to IC50 at human amylin receptor (SPA competition assays)
# In short: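 Competition binding by SPA with cell membranes (35 ng/μL) and SPA beads in 50 mM Hepes pH 7.4 with 1 mM CaCl2, 5 mM MgCl2, 0.1% OA and 0.02% Tween20. Incubated 120 min at 25 °C with shaking, then counted.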
row,Ratio hCT/hAmylin binding,Binder
1,38.6,B1
2,16.7,B2
3,151,B4

# Reference: patent publication US20140087995A1 (published 2014)
